From patent US5352772A, “75 Kilodalton interleukin-2 receptor proteins and their uses” (The Trustees of Dartmouth College, priority 1986, dated 1994) come the findings set out here.

The assay can be described thus: IL-2 binding affinity of the separate receptor chains. Particulars: read-out: Kd of the chain for IL-2; each chain expressed separately. Set-up: species or system human. On the procedure:
Monoclonal antibodies reactive with the Tac epitope were made available by Dr. Ellis Reinherz (1HT4; IgG2a Dana-Farber Cancer Center, Boston Mass.). IL-2 and anti-Tac ware radioiodinated using lactoperoxidase-glucose oxidase (Enzymobeads, Biorad, Richmond, Calif.) according to the manufacturer's instructions. The specific activity of anti-Tac was 5.3×10^4 CPM/pmole. […] Binding of both ligands to whole cells was performed, as described in Robb et al., Vol 154 J. Exp. Med., p. […] After 20-min incubation at 37° C., the tubes were centrifuged (8,500×g, 80s), the tips of the tubes containing the cell pellet were severed and the cell-bound and free radioactivity were determined by solid scintillation counting. The calculated values for the number of binding sites per cell were derived by Scatchard analysis of equilibrium binding data after subtraction of nonspecific binding determined in the presence of 150-fold molar excess of unlabeled ligand. […]
Particularly convincing in this regard is the finding that the chain present in limiting amounts dictates the number of high affinity receptors, and either α or β chains can function in this role. […] In contrast, YT cells express […] in excess, and high affinity receptors are detected only when the cells are induced to express β chains.

B1: β chain: previously isolated 55,000 dalton IL-2 receptor protein bearing the Tac epitope (protein, UniProt P01589 22-272, looked up)
Interleukin-2 receptor …: ELCDDDPPEIPHATFKAMAYKEGTMLNCECKRGFRRIKSGSLYMLCTGNSSHSSWDNQCQCTSSATRNTTKQVTPQPEEQKERKTTEMQSPMQPVDQASLPGHCREPPPWENEATERIYHFVVGQMVYYQCVQGYRALHRGPAESVCKMTHGKTRWTQPQLICTGEMETSQFPGEEKPQASPEGRPESETSCLVTTTDFQIQTEMAATMETSIFTTEYQVAVAGCVFLLISVLLLSGLTWQRRQRKSRRTI
By Kd is commonly meant the free concentration of one partner at which half of the binding sites on the other are occupied at equilibrium, for simple one-to-one binding. As to B1, the Kd stood at 10 nM.
